Laboratory results reported in US10709762B2, “Use of M-CSF for preventing or treating myeloid cytopenia and related complications” (priority 2013, dated 2020).

Assays:
CD150hi HSC = assay: In vitro culture of HSC, proliferation and survival; assay type: cell-based, mice; conditions: culture in the presence of M-CSF
Procedure: (§1) CD150+CD34− KSLF HSC or CD150+CD34− CD48− KSLF HSC (single cells) were sorted into S-clone SF-03 medium (Sanko Jyunyaku) with 10% FBS supplemented with 100 U/ml penicillin and […] streptomycin (both Invitrogen) and cultivated in uncoated U-Shape 96 well plates (Greiner) in 100 μl SCM, 20 ng/ml rSCF, 50 ng/ml rTPO+/−100 ng/ml rM-CSF or 100 ng/ml rGM-CSF or 100 ng/ml rG-CSF. All cytokines were murine and from PeproTech. Cell viability was analyzed by AnnexinV and Propidium iodide FACS staining^35.

HSC [1] = assay: Competitive transplantation of M-CSF primed HSC, blood cell contribution; assay type: in vivo
Procedure: (§2) CD45.1 and C57Bl/6 mice were obtained from Charles River. PU.1-GFP^31 M-CSFR^−/−27 and PU.1^fl/fl 32 mice have been described. Age- and sex-matched CD45.1 recipients that were reconstituted as described^3 with CD45.2 foetal liver from wt or M-CSFR^−/− embryos^27 and PU.1^fl/fl or PU.1^fl/fl::MxCre bone marrow, were used to isolate CD150+CD34− KSLF HSC not earlier than 8 weeks after reconstitution. For in vivo injections the 10 μg/mouse M-CSF, 5 mg/kg LPS (055:B5 E. coli) or sorted cells were injected in 100 μl of PBS into the retro-orbital sinus. For HSC transplantation 400 CD150+CD34− KSLF HSC were sorted from CD45.2 mice and mixed with 100.000 Lin^+ Sca^− CD45.1 carrier cells prior to injection into sub-lethally irradiated (4.5 Gy) CD45.1 recipient mice. For competitive transplantations, 1300 CD150+, CD34-KSLF HSC were isolated 16 h after control or 10 μg M-CSF injection from actin-GFP CD45.2 mice^33, mixed with equal numbers of CD45.2 competitor HSC and injected with 300.000 Lin^+ Sca^− RC-lysed CD45.1 carrier cells into sub-lethally irradiated (4.5 Gy) CD45.1 recipients. Contribution to platelets, CD19+ B-cells and CD11b+ myeloid cells was analysed after 4 and 6 weeks in the blood from mice with at least 5% GFP+ donor cells. For PU.1 deletion PU.1^fl/fl or PU.1^fl/fl::MxCre reconstituted mice were intra-peritoneally injected with 5 μg/g Polyinosinic:polycytidylic acid 7 and 9 days prior to control (PBS) or 10 μg M-CSF injection. All mouse experiments were performed under specific pathogen-free conditions in accordance with institutional guidelines.

single HSC = assay: Single cell gene expression profiling of HSC (nanofluidic real time PCR); assay type: cell-based, mice; conditions: 16 h culture in the presence of M-CSF
Procedure: as §1
Single cells were sorted using the autoclone module on a FACSARIA™ III sorter (Becton-Dickinson) directly into 96 wells plate in the CELLS DIRECT™ Reaction Mix (Invitrogen). Individual cell lysis, cDNA synthesis and amplification was performed according to FLUIDIGM Advanced Development Protocol and single cell microfluidic real time PCR using Dynamic Array IFCs (BIOMARK™ FLUIDIGM) was performed by a trained technician of FLUIDIGM Inc. Preamplified products (22 cycles) were diluted 5-fold prior to analysis with Universal PCR Master Mix and inventoried TAQMAN® gene expression assays (ABI) in 96.96 DYNAMIC ARRAY™ on a BIOMARK™ system (FLUIDIGM). Ct values were calculated from the system's software (BIOMARK™ Real-time PCR Analysis; FLUIDIGM) and filtered according to a set of quality control rules outlined below.

HSC [2] = assay: Transplantation of M-CSF primed HSC into sub-lethally irradiated recipients, analysis of progeny; assay type: in vivo, mice
Procedure: as §2
(§3) For FACS sorting and analysis we used described staining protocols^3 and published stem and progenitor cell definitions^34, FACSCANTO™ BD™ LSRII and FACSARIA™ III equipment and DIVA™ software (BECTON-DICKINSON), analysing only populations with at least 200 events. For HSC analysis we used antibodies anti-CD34-FITC (clone RAM34, BD BIOSCIENCES), anti-CD135-PE (clone A2F10.1, BD BIOSCIENCES), anti-CD150-Pe-Cy7 (clone TC15-12F12.2, BIOLEGEND), anti-CD117-APC H7 (clone 2B8, BD BIOSCIENCES), anti-Sca-1-Pe-Cy5 (clone D7, BIOLEGEND), anti-CD48-APC (clone HM48-1, BIOLEGEND). Diverging from this or in addition we used antibodies anti-CD34 Alexa 700 (clone RAM34, BD BIOSCIENCES), anti-CD16/32 PE (clone 2.4G2, BD BIOSCIENCES), anti-CD11b PE-CF594 (clone M1/70, BD BIOSCIENCES), anti-CD19PE-Cy7 (clone 1D3, BD biosciences), anti CD45.2 APC (clone 104, BD BIOSCIENCES) and anti CD45.1 Pacific Blue (clone A20, BD BIOSCIENCES) for progenitor and blood cell analysis. LIVE/DEAD Fixable Violet Dead cell dye (Invitrogen) was used as viability marker.

[3] = tested on: PU.1 in HSC of PU.1-GFP reporter mice; assay: PU.1-GFP reporter activation in HSC after in vivo injection (FACS)
Procedure: as §2, §3

[4] = tested on: PU.1 expression in sorted HSC; assay: Quantitative RT-PCR of PU.1 expression in sorted HSC in culture; assay type: cell-based, mice; conditions: 16 h in culture with cytokine, 100 ng/ml
Procedure: as §1
Total RNA was isolated and reverse transcribed with μMACS™ ONE-STEP T7 template kit (Miltenyi Biotec) and analysed by quantitative real-time PCR using TAQMAN® Universal PCR Master Mix and a 7500 Fast Real Time PCR System sequence detection system (both Applied Biosystem), following the manufacturers' instructions.

B1: M-CSF: recombinant murine macrophage colony stimulating factor from PeproTech, used in Example 1 (protein, UniProt P07141 33-552, looked up)
Macrophage colony-stimulating …: KEVSEHCSHMIGNGHLKVLQQLIDSQMETSCQIAFEFVDQEQLDDPVCYLKKAFFLVQDIIDETMRFKDNTPNANATERLQELSNNLNSCFTKDYEEQNKACVRTFHETPLQLLEKIKNFFNETKNLLEKDWNIFTKNCNNSFAKCSSRDVVTKPDCNCLYPKATPSSDPASASPHQPPAPSMAPLAGLAWDDSQRTEGSSLLPSELPLRIEDPGSAKQRPPRSTCQTLESTEQPNHGDRLTEDSQPHPSAGGPVPGVEDILESSLGTNWVLEEASGEASEGFLTQEAKFSPSTPVGGSIQAETDRPRALSASPFPKSTEDQKPVDITDRPLTEVNPMRPIGQTQNNTPEKTDGTSTLREDHQEPGSPHIATPNPQRVSNSATPVAQLLLPKSHSWGIVLPLGELEGKRSTRDRRSPAELEGGSASEGAARPVARFNSIPLTDTGHVEQHEGSSDPQIPESVFHLLVPGIILVLLTVGGLLFYKWKWRSHRDPQTLDSSVGRPEDSSLTQDEDRQVELPV
- proliferation or survival advantage of cultured CD150hi HSC (CD150hi HSC): no proliferation or survival advantage
- long-term multi-lineage contribution (HSC [1]): did not compromise
- myeloid contribution compared to platelet and lymphoid contribution in the blood (HSC [1]; after 6 weeks): re-equilibrated
- myeloid contribution compared to platelet and lymphoid contribution in the blood (HSC [1]; at 4 weeks): myeloid advantage
- cells with a myeloid gene expression signature (single HSC): strong increase
- number of PU.1+ cells (single HSC): doubling
- myeloid differentiation preference of M-CSF primed HSC after deletion of PU.1 (HSC [2]; HSC with deleted PU.1 alleles, spleen 2 weeks): abolished
- ratio of GMP to MEP progenitors in the spleen (HSC [2]; in vivo M-CSF primed CD45.2 HSC, after 2 weeks): increased ratio
- myeloid to lymphoid cell ratio in peripheral blood (HSC [2]; in vivo M-CSF primed HSC, after 4 weeks): increased myeloid to lymphoid cell ratio
- ratio of GMP to MEP developing from PU.1+ HSC versus PU.1- HSC (HSC [2]; in vivo priming with M-CSF, spleen 2 weeks after transplantation): higher ratio
- PU.1 activation in CD150hi HSC compared with total HSC ([3]; 16 h after injection): activated PU.1 to a similar extent
- change in M-CSFR or MafB expression ([3]; HSC after M-CSF injection): no significant change
- PU.1 activation in HSC ([3]; PU.1-GFP reporter mice, direct intravenous injection, after 16 h): significantly increased PU.1 activation
- change in the proportion of CD150hi HSC ([3]; in GFP-positive or -negative HSC): no change
- PU.1 expression in FACS purified HSC [4]: increased PU.1 expression
